The chains are these.
B1: Twister Ribozyme (parent)
chain: AACACUGCCAAUGCCGGUCCCAAGCCCGGAUAAAAGUGGAGGGGGCGG

The variants in this data set derive from B1. Briefly: self-cleavage, relative activity (ratio to wild type); higher = more cleavage; co-transcriptional.
With AACACUGCCAAUGCCGGUCCCAUGCCCGGAUAUAAGUGGAGGGGGCGG [A23U A33U], the self-cleavage was found to be 0.307.
Under AACAUUGCCAAUGCCGGUCCCAAGCCCUGAUAAAAGUGGAGGGGGCGG [C5U G28U] stands 0.67; under AACACUGCGAAUGCCGGUCCCAAGCGCGGAUAAAAGUGGAGGGGGCGG [C9G C26G], 0.083; under ACCACCGCCAAUGCCGGUCCCAAGCCCGGAUAAAAGUGGAGGGGGCGG [A2C U6C], 0.0549.
With AACACUGCCAAUGCCGGACCCAAGCCCGGAUAAAACUGGAGGGGGCGG [U18A G36C], the self-cleavage was determined as 0.0768.
Under AACACUGCCACUGCAGGUCCCAAGCCCGGAUAAAAGUGGAGGGGGCGG [A11C C15A] stands 0.24; under AACACUGCCAAUGCCGGUUCCAAGCCCGGAUAAAAGUGGAGAGGGCGG [C19U G42A], 0.17; under AACACUGCCAAUGCCGGUCCCAACCCGGGAUAAAAGUGGAGGGGGCGG [G24C C27G], 0.134.
Under AACACUGCCAAUCGCGGUCCCAAGCCCGGAUAAAAGUGGAGGGGGCGG [G13C C14G] stands 0.334.
Under AACACUGCCAAUGCCGGUCCCAUGCCCGGUUAAAAGUGGAGGGGGCGG [A23U A30U] stands 0.501; under AACACUGCCAAUGCCGCUCCCAAGCCCGGAUAAAAGUUGAGGGGGCGG [G17C G38U], 0.073; under AACACUGCCAAUGCCGGUCCCAAGCCCGGAUAAAAGUGGCGGGGGCGU [A40C G48U], 0.284.
AACUCUGCCAAUGCCGGUCCCAAGUCCGGAUAAAAGUGGAGGGGGCGG [A4U C25U]: the self-cleavage is 0.0507.
Under AACACUGCCAAUGCCGGUCCCAAGCCCGGAUAAUAGUGGAGGGGGUGG [A34U C46U] stands 0.84; under AACACUGCCGACGCCGGUCCCAAGCCCGGAUAAAAGUGGAGGGGGCGG [A10G U12C], 0.847.
Take AACACUUCCAAUGCCGGUCCCUAGCCCGGAUAAAAGUGGAGGGGGCGG [G7U A22U]: the self-cleavage worked out at 0.0446.
Under AACACUGCCGAUGCAGGUCCCAAGCCCGGAUAAAAGUGGAGGGGGCGG [A10G C15A] stands 0.707; under AACACUGCCAAUACCGGUCCCAAGCCCGGAUAAAAGUGGAGGGGCCGG [G13A G45C], 0.229; under AACACUGCCCAUGCCGGUCCCAAGGCCGGAUAAAAGUGGAGGGGGCGG [A10C C25G], 0.31.
Under AACAAUGCCAACGCCGGUCCCAAGCCCGGAUAAAAGUGGAGGGGGCGG [C5A U12C] stands 0.462.
Under AACACUGACAAUGCCGGUCCCUAGCCCGGAUAAAAGUGGAGGGGGCGG [C8A A22U] stands 0.127.
In the case of AACACUGCCAAUGCCUGUCCCAAGCCCGGAUAAAAGUGGAGAGGGCGG [G16U G42A], the self-cleavage is 0.26.
Under AACACUGCCAAUCCCGGUCCCAAGCCCGGAUAAAAGUGGAGGGGUCGG [G13C G45U] stands 0.144; under AACACUGCCAAUGCCGGGCCCAAGCCAGGAUAAAAGUGGAGGGGGCGG [U18G C27A], 0.0641; under AACACUGCCAAUGCCGAUCCCAAGCCCGGAUAAAAGUGGAGGGGGCGA [G17A G48A], 0.661.
As to AACACUGCCCAUGCCGGUCCCAAGCCCGGAUAAAGGUGGAGGGGGCGG [A10C A35G], the self-cleavage was 0.965.
Under AACACUGCCAAUGCCGGGCCUAAGCCCGGAUAAAAGUGGAGGGGGCGG [U18G C21U] stands 0.0712; under AAGACUGCCAAUGCCGGUCCCAAGCCCGGAUAGAAGUGGAGGGGGCGG [C3G A33G], 0.483.
Under AACACUGCCAAUGCCGGUCCCAAGCCCGGAUAAAAGCGGAGGGGGCGU [U37C G48U] stands 0.881; under AACACUGCCAAUGCCGGUCCACAGCCCGGAUAAAAGUGGAGGGGGCGG [C21A A22C], 0.101; under AACACUGCCAAUGCCGGCCCCAAGCCCGGAUAAAAGUGGAGGGGGCAG [U18C G47A], 0.288.
GACACUGCCUAUGCCGGUCCCAAGCCCGGAUAAAAGUGGAGGGGGCGG [A1G A10U]: the self-cleavage is 0.428.
Under AACACUGCCAAUGCCGGUCCCAAGCCCGGAAAAAAGUGGAGGGAGCGG [U31A G44A] stands 0.689; under AACACUGCCAACGCCGGUCCCAAGCCCGGAUAAAAGUGGAGGAGGCGG [U12C G43A], 0.243; under AACACUGCCAAUGCCGGUCCCAAGCCCGGAUAAAAAUGGAGGGGGCCG [G36A G47C], 0.234.
Take AACACUGACAAUGCCGGUCCCAAGCCCGGAUAAAAGUGGAGGGGGCUG [C8A G47U]: the self-cleavage was 0.156.
Under AACACUGGCAAUGCCGGUCCCAAGCCCGGAUAAAAGUGGAAGGGGCGG [C8G G41A] stands 0.179; under AACACUGCCAAUGCCGGUCCCAAGCCCGCAUCAAAGUGGAGGGGGCGG [G29C A32C], 0.662; under AACACUGCCAAUGCCGGUCCCAAACCCGGAUAAAAGUUGAGGGGGCGG [G24A G38U], 0.126.
Under AACCCUGCCAAUGCCGGUCCCAAGCCCGGAGAAAAGUGGAGGGGGCGG [A4C U31G] stands 0.177; under AACACUGCCAAUGCUGGACCCAAGCCCGGAUAAAAGUGGAGGGGGCGG [C15U U18A], 0.379; under AACACUGCCAAUGCCGGUCCCAACCCCGGAUAAAAGUGGAGAGGGCGG [G24C G42A], 0.105.
Under AACACUGCCAAUGCCGUUCCCAAUCCCGGAUAAAAGUGGAGGGGGCGG [G17U G24U] stands 0.0893; under AACACUGCCAAUGCCGGUCCCAAGCCUGGAUAAAAGUGCAGGGGGCGG [C27U G39C], 0.136; under AACACUGCCAAUGCCGGUCCCCAGCCCGGAUAAAAGUGGAGGGGGCUG [A22C G47U], 0.917.
As to AACACUGUCAAUGCCGGUCCCAAGCCCGGAUAAAAGUUGAGGGGGCGG [C8U G38U], the self-cleavage came to 0.481.
Under AACACUGCCAAUGCCGGUCCCAAGCCCGAAUAAAUGUGGAGGGGGCGG [G29A A35U] stands 0.887; under AACACUGCCAAUGCCGGUCCCAAGCCCGAAUAAACGUGGAGGGGGCGG [G29A A35C], 0.762; under AACCCUGCCAAUGUCGGUCCCAAGCCCGGAUAAAAGUGGAGGGGGCGG [A4C C14U], 0.257.
Turning to AACACUGCCAAUGCCGGUCCCAAGCCCGGAUAAAAGUGGACCGGGCGG [G41C G42C], the self-cleavage is 0.129.
Under AACACUGCCAAUGCCGGAGCCAAGCCCGGAUAAAAGUGGAGGGGGCGG [U18A C19G] stands 0.0926.
Turning to AACACUGCCAAUGCCGCUCCCAAGCCCGGAUAGAAGUGGAGGGGGCGG [G17C A33G], the self-cleavage was 0.093.
AACACUGCCAAUGCCGCUCCCAAGCCCGGAUAUAAGUGGAGGGGGCGG [G17C A33U]: the self-cleavage came to 0.0842.
Under AACACUGCCAAUGCCGGUCCCGAGCCCGGAUAAAAGUGGCGGGGGCGG [A22G A40C] stands 0.11.

Values taken from the RNAGym collection of RNA variant scans (doi:10.7554/elife.80360).
